Usually Kd stands for the constant that tells how readily two partners part at equilibrium. A low value points to tighter binding.

The target in the test is basic FGF (human, UniProt P09038, radioiodinated (125I) in the soluble binding assay and the radioreceptor assay). In words: soluble binding assay: EC-FGF receptor on concanavalin A coated wells, 125I-bFGF with increasing bFGF, Scatchard analysis.

B1: EC-FGF receptor, soluble extracellular domain of the human FGF receptor flg5 expressed in a baculovirus system (receptor)
chain: RPSPTLPEQAQPWGAPVEVESFLVHPGDLLQLRCRLRDDVQSINWLRDGVQLAESNRTRITGEEVEVQDSVPADSGLYACVTSSPSGSDTTYFSVNVSDALPSSEDDDDDDDSSSEEKETDNTKPNPVAPYWTSPEKMEKKLHAVPAAKTVKFKCPSSGTPNPTLRWLKNGKEFKPDHRIGGYKVRYATWSIIMDSVVPSDKGNYTCIVENEYGSINHTYQLDVVERSPHRPILQAGLPANKTVALGSNVEFMCKVYSDPQPHIQWLKHIEVNGSKIGPDNLPYVQILKTAGVNTTDKEMEVLHLRNVSFEDAGEYTCLAGNSIGLSHHSAWLTVLEALEERPAVMTSPLYLE
Regarding B1, the Kd is less than 5 nM.

These data come from US5767250, “Complexes comprising truncated CMV gH polypeptides and escort proteins” (Chiron Corporation, dated 1998).
